Data as given in patent US7067277B1, “Chimeric G proteins and uses thereof” (H. Lundbeck A/S, priority 1999, dated 2006).

T1: Rat GALR1 (Rattus norvegicus, UniProt Q62805)
T1 construct: linearized plasmids or PCR products containing the complete coding region of the genes; expressed in transfected cells; host or cells: Xenopus laevis oocytes (receptor cRNA injected)
T1 sequence (Q62805 1-346): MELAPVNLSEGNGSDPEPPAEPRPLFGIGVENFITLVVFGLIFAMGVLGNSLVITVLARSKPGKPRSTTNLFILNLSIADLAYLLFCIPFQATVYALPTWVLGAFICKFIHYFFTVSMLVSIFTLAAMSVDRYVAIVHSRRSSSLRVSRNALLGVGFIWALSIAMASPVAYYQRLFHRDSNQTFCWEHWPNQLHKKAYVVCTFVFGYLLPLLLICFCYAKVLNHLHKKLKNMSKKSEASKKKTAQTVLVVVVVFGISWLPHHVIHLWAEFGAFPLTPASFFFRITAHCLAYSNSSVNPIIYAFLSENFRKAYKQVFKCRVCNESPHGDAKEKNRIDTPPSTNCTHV

T2: Rat Y5 (Rattus norvegicus, UniProt Q63634)
T2 construct: linearized plasmids or PCR products containing the complete coding region of the genes; expressed in transfected cells; host or cells: Xenopus laevis oocytes (receptor cRNA injected)
T2 sequence (Q63634 1-445): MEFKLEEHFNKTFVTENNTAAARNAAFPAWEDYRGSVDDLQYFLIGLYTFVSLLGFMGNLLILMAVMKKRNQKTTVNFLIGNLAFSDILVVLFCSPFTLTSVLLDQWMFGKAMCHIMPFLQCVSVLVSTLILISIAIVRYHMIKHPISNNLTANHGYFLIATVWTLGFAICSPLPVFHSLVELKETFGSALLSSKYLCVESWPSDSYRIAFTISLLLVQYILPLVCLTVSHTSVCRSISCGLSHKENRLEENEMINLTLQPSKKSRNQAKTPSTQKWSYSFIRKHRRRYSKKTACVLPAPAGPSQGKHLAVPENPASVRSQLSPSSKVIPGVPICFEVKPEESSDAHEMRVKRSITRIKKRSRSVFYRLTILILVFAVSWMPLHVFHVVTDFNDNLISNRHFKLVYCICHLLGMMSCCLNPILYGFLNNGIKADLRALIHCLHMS


Columns and labels:
Format in all cases: cell-based
Rat GALR1 = target: T1, Rat GALR1; test: Cl- current recording in Xenopus oocytes expressing GPCR and chimeric G protein; conditions: Xenopus oocytes expressing Rat GALR1 and chimera; mean ± s.e.m
Method: (§1) Oocytes were harvested from Xenopus laevis and injected with mRNA transcripts as previously described (Quick and Lester, 1994; Smith et al., 1997). Receptor and chimeric G protein α subunit RNA transcripts were synthesized using the T7 polymerase (“Message Machine,” Ambion) from linearized plasmids or PCR products containing the complete coding region of the genes. Oocytes were injected with 5–25 ng synthetic receptor RNA and incubated for 3–8 days at 17 degrees. Three to eight hours prior to recording, oocytes were injected with 500 pg chimeric Gα subunit mRNA. Dual electrode voltage clamp (Axon Instruments Inc.) was performed using 3 M KCl-filled glass microelectrodes having resistances of 1–2 MOhm. Unless otherwise specified, oocytes were voltage clamped at a holding potential of −80 mV. During recordings, oocytes were bathed in continuously flowing (1–3 ml/min) medium containing 96 mM NaCl, 2 mM KCl, 1.8 mM CaCl2, 1 mM MgCl2, and 5 mM HEPES, pH 7.5 (ND96). Drugs were applied by local perfusion from a 10 μl glass capillary tube fixed at a distance of 0.5 mm from the oocyte. Experiments were carried out at room temperature. All values are expressed as mean±standard error of the mean.

[1] = test system: GALR1, Y1, NPFF2, and 5HT1D; test: Cl- current recording in Xenopus oocytes, C. elegans versus human chimera
Method: as §1

Rat Y5 = target: T2, Rat Y5; test: Cl- current recording in Xenopus oocytes expressing GPCR and chimeric G protein; conditions: Xenopus oocytes expressing Rat Y5 and chimera; mean ± s.e.m
Method: as §1

Molecule | Response amplitudes (nA) in oocytes (Rat GALR1) [nA] | increase in response over currents from oocytes expressing the human version of the chimera [1] | Response amplitudes (nA) in oocytes (Rat Y5) [nA]
cGαq/z5: chimeric Gα subunit: C-terminal final 5 amino acids of C. elegans Gαq replaced with those of hGαz (SEQ ID NO: 1) (protein, C. elegans) MACCLSEEAREQKRINQEIEKQLQRDKRNARRELKLLLLGTGESGKSTFIKQMRIIHGQGYSEEDKRAHIRLVYQNVFMAIQSMIRAMDTLDIKFGNESEELQEKAAVVREVDFESVTSFEEPYVSYIKELWEDSGIQECYDRRREYQLTDSAKYYLSDLRRLAVPDYLPTEQDILRVRVPTTGIIEYPFDLEQIIFRMVDVGGQRSERRKWIHCFENVTSIMFLVALSEYDQVLVECDNENRMEESKALFRTIITYPWFTNSSVILFLNKKDLLEEKILYSHLADYFPEYDGPPRDPIAAREFILKMFVDLNPDADKIIYSHFTCATDTENIRFVFAAVKDTILQHNLKYIGLC | 91 ± 38 | 2–3 fold | –
cGαq/z9: C. elegans Gαq with Gαz portion of the C-terminal tail extended to 9 amino acids (SEQ ID NO: 2) (protein, C. elegans) MACCLSEEAREQKRINQEIEKQLQRDKRNARRELKLLLLGTGESGKSTFIKQMRIIHGQGYSEEDKRAHIRLVYQNVFMAIQSMIRAMDTLDIKFGNESEELQEKAAVVREVDFESVTSFEEPYVSYIKELWEDSGIQECYDRRREYQLTDSAKYYLSDLRRLAVPDYLPTEQDILRVRVPTTGIIEYPFDLEQIIFRMVDVGGQRSERRKWIHCFENVTSIMFLVALSEYDQVLVECDNENRMEESKALFRTIITYPWFTNSSVILFLNKKDLLEEKILYSHLADYFPEYDGPPRDPIAAREFILKMFVDLNPDADKIIYSHFTCATDTENIRFVFAAVKDTILQNNLKYIGLC | – | – | 65 ± 34
